Here are results for two molecules from paper PMC3510444 (Molecular Cell, 2012).

The experiment addresses T1, LC3A, purified, for fluorescence anisotropy (human, UniProt Q9H492 1-121).
T1 construct: LC3A, human ATG8 ortholog; Construct limits and whether the tag was removed may stand in the Supplemental Experimental Procedures; source: E. coli (pETM30 vectors for biochemical experiments), purified
The experiment is described as follows: fluorescence polarisation; fluorescence anisotropy, equilibrium; purified ATG8 orthologs serially diluted and mixed with equal volumes of 100 nM FITC-labeled NDP52 peptides; PheraStar plate reader. As to conditions: both partners purified. On the technique in general: Polarisation of emitted light reports the rotation of a fluorescent probe.

Where no end group is shown, it is not given here.

B1: FITC-labeled NDP52 CLIR peptide (aa 128-141), I133W (peptide)
peptide: ENEEDWLVVTTQGE
modifications: also: FITC label (end not given here)
notes: NDP52, human, CLIR region, 14-mer, Ile133 replaced with Trp; also called CLIR^I133W
Broadly, the Kd is the equilibrium constant for the complex coming apart. B1 registered an equilibrium dissociation constant (Kd) of 0.29 µM.

B2: FITC-labeled NDP52 CLIR peptide (aa 128-141), wild type (peptide)
peptide: ENEEDILVVTTQGE
modifications: also: FITC label (end not given here)
notes: NDP52, human, CLIR region, 14-mer; also called CLIR^WT
Turning to B2, the Kd is 15.1 µM.
